The target in this test is VNp-mNeongreen-TEV-etanercept-His6 fusion protein (human). The experiment in a line: SDS-PAGE without reducing agent and anti-mNeongreen western blot; VNp-mNG-etanercept purified from E. coli, without DTT.

Turning to “VNp-mNeongreen-TEV-etanercept-His6 fusion protein (Fc fusion)”, the stoichiometry N was 2.

The stoichiometry N is a count of units in the complex or per binding partner.

These data come from paper PMC10014274.
